Laboratory results published in patent publication US20230242646A1 (JJP BIOLOGICS SP Z O O, published 2023).
Where “and” joins values, the source holds several entries; their conditions need not be identical. Equal values may be shown once. Each block holds one binder with its values, some of them ahead of it.

Columns and labels:
[1] = molecular target: T1, recombinant C-terminal polyhistidine-tagged human (extracellular) CD89 (Sino Biological) (human, UniProt P24071 22-227); assay: ELISA, coated rhuCD89
T1 construct: extracellular domain; bought protein; also called rhuCD89; soluble monomeric rhuCD89
Protocol: After extensive washing with PBS/0.05% Tween 20, plates were blocked with PBS/0.05% Tween 20/1% BSA (Roche) for 1 hour at RT. Subsequently, plates were incubated with 50 µL titrated (in block buffer) purified mouse anti-human CD89 antibody/well for 1 hour at RT. […] After extensive washing in PBS/0.05% Tween 20, binding of antibodies on rhuCD89 was determined with 1:5,000 diluted horseradish peroxidase (HRP)-conjugated goat anti-mouse IgG Fcy-specific antibodies (Jackson ImmunoResearch) for 1 hour at RT, followed by a ready-to-use solution of TMB substrate (Invitrogen) for colorimetric detection.
After extensive washing with PBS/0.05% Tween 20, plates were blocked with PBS/0.05% Tween 20/1% BSA (Roche) for 1 hour at RT. […] After extensive washing in PBS/0.05% Tween 20, binding of antibodies on rhuCD89 was determined with 1:5,000 diluted horseradish peroxidase (HRP)-conjugated goat anti-human IgG Fcy-specific antibodies (Jackson ImmunoResearch) for 1 hour at RT, followed by a ready-to-use solution of TMB substrate (Invitrogen) for colorimetric detection.

[2] = molecular target: T2, membrane-bound full-length human CD89 on HEK293F cells (human, UniProt P24071 22-287); assay: FACS HEK293F-huCD89
T2 construct: 2 or transient transfectants; also called membrane human CD89; human FcaRI
Protocol: After extensive washing in PBS/BSA/NaN₃, cells were subsequently incubated with 1:200 diluted PE-conjugated goat anti-human IgG Fcy-specific antibodies (Jackson ImmunoResearch) for 30 minutes at 4° C. After extensive washing in PBS/BSA/NaN₃, cells were fixed in 2% formaldehyde in PBS/BSA/NaN₃ for 30 minutes at 4° C.

[3] = molecular target: T2, membrane-bound full-length human CD89 …; assay: FACS, antibody before secretory IgA on HEK293F-huCD89; IgA detected
[4] = molecular target: T2, membrane-bound full-length human CD89 …; assay: FACS, antibody before heat-aggregated serum IgA on HEK293F-huCD89; IgA detected
[5] = molecular target: T2, membrane-bound full-length human CD89 …; assay: FACS, antibody before non-aggregated serum IgA on HEK293F-huCD89; IgA detected
[6] = molecular target: T1, recombinant C-terminal …; assay: ELISA on plate-coated rhuCD89; titrated supernatant; HRP goat anti-human IgG Fc detection, OD 450 nm [VL3]
[7] = molecular target: T1, recombinant C-terminal …; assay: ELISA, coated rhuCD89, purified Ab
Protocol: After extensive washing with PBS/0.05% Tween 20, plates were blocked with PBS/0.05% Tween 20/1% BSA (Roche) for 1 hour at RT. […] After extensive washing in PBS/0.05% Tween 20, binding of antibodies on rhuCD89 was determined with 1:5,000 diluted horseradish peroxidase (HRP)-conjugated goat anti-human IgG Fcγ-specific antibodies (Jackson ImmunoResearch) for 1 hour at RT, followed by a ready-to-use solution of TMB substrate (Invitrogen) for colorimetric detection. After adding 1 M HCL, binding (optical density) of antibodies on rhuCD89 was measured at wavelength of 450 nm (reference wavelength of 655 nm) using a microplate reader (Synergy HTX; BioTek).

[8] = molecular target: T1, recombinant C-terminal …; assay: BLI (Octet RED96), biotinylated Ab on streptavidin tips, rhuCD89 analyte, 1:1 model
Protocol: Equilibrium dissociation constants (KD) were determined using a 1:1 Langmuir binding model in Octet® RED96 software (ForteBio).

[9] = molecular target: T2, membrane-bound full-length human CD89 …; assay: FACS HEK293F-huCD89; inhibition of serum human IgA binding
Protocol: (§1) After extensive washing in PBS/BSA/NaN₃, 1:200 diluted PE-conjugated streptavidin (Jackson ImmunoResearch) was added, and incubated for 30 minutes at 4° C. After extensive washing in PBS/BSA/NaN₃, cells were fixed in 4% formaldehyde in PBS/BSA/NaN₃ for 30 minutes at 4° C.

[10] = molecular target: T2, membrane-bound full-length human CD89 …; assay: FACS HEK293F-huCD89, purified Ab
Protocol: After extensive washing in PBS/BSA/NaN₃, cells were subsequently incubated with 1:200 diluted PE-conjugated goat anti-human IgG Fcγ-specific antibodies (Jackson ImmunoResearch) for 30 minutes at 4° C. After extensive washing in PBS/BSA/NaN₃, cells were fixed in 4% formaldehyde in PBS/BSA/NaN₃ for 30 minutes at 4° C.

[11] = molecular target: T2, membrane-bound full-length human CD89 …; assay: FACS HEK293F-huCD89; inhibition of secretory human IgA binding
Protocol: as §1

[12] = molecular target: T1, recombinant C-terminal …; assay: ELISA on plate-coated rhuCD89; titrated supernatant; HRP goat anti-human IgG Fc detection, OD 450 nm [VL4]

B1: CD89/IgA blocking chimeric mouse/human IgG4/kappa anti-human CD89 antibody 20B4 (antibody)
heavy: not shown
light: DILMTQSPSSMSVSLGDTVSITCHASQDISRNIGWLQQKPGKSFKGLIYHGTNLEDGVPSRFSGSGSGADYSLTISSLESEDFADYYCVQYAQFPRTFGGGTKLEIKRTVAAPSVFIFPPSDEQLKSGTASVVCLLNNFYPREAKVQWKVDNALQSGNSQESVTEQDSKDSTYSLSSTLTLSKADYEKHKVYACEVTHQGLSSPVTKSFNRGEC
notes: stabilized (S239P) human IgG4; also called chimeric 20B4
EC50 [1]: 0.009 µg/mL
EC50 [2]: 0.296 µg/mL

B4: humanized IgG4/kappa anti-human CD89 monoclonal antibody 10E7 version VH2VL3 (antibody)
heavy: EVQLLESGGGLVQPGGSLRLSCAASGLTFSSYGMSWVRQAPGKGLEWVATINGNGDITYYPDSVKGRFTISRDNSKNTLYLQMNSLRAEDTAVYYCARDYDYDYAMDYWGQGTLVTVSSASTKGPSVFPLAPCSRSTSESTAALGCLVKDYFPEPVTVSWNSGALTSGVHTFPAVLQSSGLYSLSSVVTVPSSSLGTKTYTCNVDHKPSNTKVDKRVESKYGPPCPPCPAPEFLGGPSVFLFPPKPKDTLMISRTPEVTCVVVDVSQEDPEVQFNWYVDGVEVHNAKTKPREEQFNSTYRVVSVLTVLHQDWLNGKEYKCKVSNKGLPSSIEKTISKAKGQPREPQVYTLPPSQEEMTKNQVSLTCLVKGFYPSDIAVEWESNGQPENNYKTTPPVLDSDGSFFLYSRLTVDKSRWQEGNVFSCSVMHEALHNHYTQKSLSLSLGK
light: DIQMTQSPSSLSASVGDRVTITCRASQDIINYLNWYQQKPGKAVKLLIYYTSRLHSGVPSRFSGSGSGTDYTLTISSLQPEDFATYYCQQGKTLPYTFGQGTKLEIKRTVAAPSVFIFPPSDEQLKSGTASVVCLLNNFYPREAKVQWKVDNALQSGNSQESVTEQDSKDSTYSLSSTLTLSKADYEKHKVYACEVTHQGLSSPVTKSFNRGEC
notes: tested as supernatant; signal peptide end derived as for m17
EC50 (read off the curve) [6]: ~0.04 µg/mL

B5: 'CDR2 deamidation-repaired' humanized IgG4/kappa anti-human CD89 monoclonal antibody 10E7 version VH3SQVL3 (antibody)
heavy: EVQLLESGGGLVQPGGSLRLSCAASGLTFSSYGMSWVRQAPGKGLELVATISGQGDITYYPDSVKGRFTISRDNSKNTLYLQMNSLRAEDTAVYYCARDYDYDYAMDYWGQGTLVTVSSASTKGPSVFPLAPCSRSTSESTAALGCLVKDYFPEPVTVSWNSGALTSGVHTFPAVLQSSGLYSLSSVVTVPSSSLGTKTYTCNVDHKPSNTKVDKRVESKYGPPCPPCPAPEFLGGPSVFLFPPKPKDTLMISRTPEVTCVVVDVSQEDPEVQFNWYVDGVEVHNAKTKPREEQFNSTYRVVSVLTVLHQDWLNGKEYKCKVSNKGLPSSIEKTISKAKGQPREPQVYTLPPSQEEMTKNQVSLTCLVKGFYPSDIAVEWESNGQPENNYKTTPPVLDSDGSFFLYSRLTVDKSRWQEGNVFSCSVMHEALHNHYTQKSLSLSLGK
light: DIQMTQSPSSLSASVGDRVTITCRASQDIINYLNWYQQKPGKAVKLLIYYTSRLHSGVPSRFSGSGSGTDYTLTISSLQPEDFATYYCQQGKTLPYTFGQGTKLEIKRTVAAPSVFIFPPSDEQLKSGTASVVCLLNNFYPREAKVQWKVDNALQSGNSQESVTEQDSKDSTYSLSSTLTLSKADYEKHKVYACEVTHQGLSSPVTKSFNRGEC
notes: Biotinylated in the Octet assay; also called Humanized VH3SQVL3
EC50 [7]: ~0.01 µg/mL
Kd [8]: 0.82 nM
koff [8]: 0.000941 s⁻¹
kon [8]: 1.15e+06 M⁻¹ s⁻¹
IC50 [9]: ~0.9 µg/mL
EC50 [10]: ~0.6 µg/mL
IC50 [11]: ~0.6 µg/mL

B9: 'CDR2 deamidation-repaired' humanized IgG4/kappa anti-human CD89 monoclonal antibody 10E7 version VH3STVL3 (antibody)
heavy: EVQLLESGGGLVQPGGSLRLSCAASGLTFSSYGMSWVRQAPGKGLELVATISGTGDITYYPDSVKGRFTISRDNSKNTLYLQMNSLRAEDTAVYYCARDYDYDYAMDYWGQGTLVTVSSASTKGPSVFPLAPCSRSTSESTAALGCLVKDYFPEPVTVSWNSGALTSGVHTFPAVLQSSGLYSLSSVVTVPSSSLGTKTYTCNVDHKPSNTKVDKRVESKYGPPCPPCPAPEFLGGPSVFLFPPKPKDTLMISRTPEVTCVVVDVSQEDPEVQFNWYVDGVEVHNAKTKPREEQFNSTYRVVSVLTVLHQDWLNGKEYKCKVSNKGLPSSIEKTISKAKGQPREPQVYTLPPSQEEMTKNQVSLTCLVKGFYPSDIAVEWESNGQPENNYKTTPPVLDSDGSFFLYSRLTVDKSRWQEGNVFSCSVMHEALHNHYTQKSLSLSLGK
light: DIQMTQSPSSLSASVGDRVTITCRASQDIINYLNWYQQKPGKAVKLLIYYTSRLHSGVPSRFSGSGSGTDYTLTISSLQPEDFATYYCQQGKTLPYTFGQGTKLEIKRTVAAPSVFIFPPSDEQLKSGTASVVCLLNNFYPREAKVQWKVDNALQSGNSQESVTEQDSKDSTYSLSSTLTLSKADYEKHKVYACEVTHQGLSSPVTKSFNRGEC
notes: Biotinylated in the Octet assay; also called Humanized VH3STVL3
EC50 [7]: ~0.01 µg/mL
Kd [8]: 0.92 nM
koff [8]: 0.000974 s⁻¹
kon [8]: 1.06e+06 M⁻¹ s⁻¹
IC50 [9]: ~0.9 µg/mL
EC50 [10]: ~0.6 µg/mL
IC50 [11]: ~0.6 µg/mL

B10: CD89/IgA blocking chimeric mouse/human IgG4/kappa anti-human CD89 antibody 10E7 (antibody)
heavy: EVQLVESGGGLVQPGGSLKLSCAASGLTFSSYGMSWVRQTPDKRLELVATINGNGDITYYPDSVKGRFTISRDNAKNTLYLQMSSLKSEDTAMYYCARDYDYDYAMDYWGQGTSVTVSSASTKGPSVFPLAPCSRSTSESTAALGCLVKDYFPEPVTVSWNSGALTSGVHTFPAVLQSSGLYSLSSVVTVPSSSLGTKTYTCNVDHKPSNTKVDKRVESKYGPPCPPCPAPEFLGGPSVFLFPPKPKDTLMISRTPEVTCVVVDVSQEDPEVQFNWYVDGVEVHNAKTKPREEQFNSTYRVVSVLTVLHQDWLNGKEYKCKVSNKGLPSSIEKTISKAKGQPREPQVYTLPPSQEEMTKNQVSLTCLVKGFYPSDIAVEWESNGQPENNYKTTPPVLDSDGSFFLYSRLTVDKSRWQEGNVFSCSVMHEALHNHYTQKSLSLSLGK
light: DIQMTQSTSSLSASLGDSVTISCRASQDIINYLNWYQQKPDGTVKLLIYYTSRLHSGVPSRFSGSGSGTEYSLTVSNLEKEDIATYFCQQGKTLPYTFGGGTKLEIKRTVAAPSVFIFPPSDEQLKSGTASVVCLLNNFYPREAKVQWKVDNALQSGNSQESVTEQDSKDSTYSLSSTLTLSKADYEKHKVYACEVTHQGLSSPVTKSFNRGEC
notes: stabilized (S239P) human IgG4; biotinylated in the Octet assay; also called chimeric 10E7; chimer IgG4/k 10E7
EC50 [1]: 0.016 µg/mL and ~0.02 µg/mL
EC50 [7]: ~0.01 µg/mL
Kd [8]: 1.28 nM
koff [8]: 0.00106 s⁻¹
kon [8]: 832000 M⁻¹ s⁻¹
IC50 [9]: ~1.6 µg/mL
EC50 [10]: ~1.3 µg/mL
EC50 [2]: 1.25 µg/mL and ~1 µg/mL
IC50 [11]: ~1 µg/mL

Other lines, results leading:

EC50 [1]: 0.108 µg/mL
EC50 [2]: 1.79 µg/mL
B2: CD89/IgA blocking chimeric mouse/human IgG4/kappa anti-human CD89 antibody 16D6 (antibody)
heavy: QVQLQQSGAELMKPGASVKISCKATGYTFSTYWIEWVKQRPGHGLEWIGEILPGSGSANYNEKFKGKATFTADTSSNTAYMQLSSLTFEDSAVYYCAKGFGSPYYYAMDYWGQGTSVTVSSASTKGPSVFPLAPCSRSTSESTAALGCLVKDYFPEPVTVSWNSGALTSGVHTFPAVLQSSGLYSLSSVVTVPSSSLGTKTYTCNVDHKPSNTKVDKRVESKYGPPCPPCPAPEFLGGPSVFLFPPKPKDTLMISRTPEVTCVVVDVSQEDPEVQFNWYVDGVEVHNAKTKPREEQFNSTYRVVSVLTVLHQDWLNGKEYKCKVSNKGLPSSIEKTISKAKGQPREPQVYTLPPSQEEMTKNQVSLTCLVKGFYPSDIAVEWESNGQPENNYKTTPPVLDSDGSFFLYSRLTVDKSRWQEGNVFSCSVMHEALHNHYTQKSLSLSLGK
light: EIVLTQSPALMAASPGEKVTITCSVSSSISSSNLHWYQQKSETSPKPWIYGTSKLASGVPVRFSGSGSGTSYSLTISNMEAEDAATYYCQQWSSFPLTFGGGTKLEIKRTVAAPSVFIFPPSDEQLKSGTASVVCLLNNFYPREAKVQWKVDNALQSGNSQESVTEQDSKDSTYSLSSTLTLSKADYEKHKVYACEVTHQGLSSPVTKSFNRGEC
notes: stabilized (S239P) human IgG4; also called chimeric 16D6

IC50 (read off the curve) [3]: ~1 µg/mL
IC50 (read off the curve) [4]: ~0.8 µg/mL
IC50 (read off the curve) [5]: ~0.9 µg/mL
B3: CD89/IgA blocking chimeric mouse/human IgG4/kappa anti-human CD89 antibody 30C7 (antibody)
heavy: not shown
light: DIVMSQSPSSLAVSAGEKVTMSCKSSQSLLNSRTRKNYLAWYQQKPGQSPKLLIYWASTRESGVPDRFTGSGSGTDFTLTISSVQAEDLAVYYCKQSYNLMYTFGGGTKLEIKRTVAAPSVFIFPPSDEQLKSGTASVVCLLNNFYPREAKVQWKVDNALQSGNSQESVTEQDSKDSTYSLSSTLTLSKADYEKHKVYACEVTHQGLSSPVTKSFNRGEC
notes: stabilized (S239P) human IgG4; also called chimeric 30C7

EC50 (read off the curve) [6]: ~0.03 µg/mL
B6: humanized IgG4/kappa anti-human CD89 monoclonal antibody 10E7 version VH1VL3 (antibody)
heavy: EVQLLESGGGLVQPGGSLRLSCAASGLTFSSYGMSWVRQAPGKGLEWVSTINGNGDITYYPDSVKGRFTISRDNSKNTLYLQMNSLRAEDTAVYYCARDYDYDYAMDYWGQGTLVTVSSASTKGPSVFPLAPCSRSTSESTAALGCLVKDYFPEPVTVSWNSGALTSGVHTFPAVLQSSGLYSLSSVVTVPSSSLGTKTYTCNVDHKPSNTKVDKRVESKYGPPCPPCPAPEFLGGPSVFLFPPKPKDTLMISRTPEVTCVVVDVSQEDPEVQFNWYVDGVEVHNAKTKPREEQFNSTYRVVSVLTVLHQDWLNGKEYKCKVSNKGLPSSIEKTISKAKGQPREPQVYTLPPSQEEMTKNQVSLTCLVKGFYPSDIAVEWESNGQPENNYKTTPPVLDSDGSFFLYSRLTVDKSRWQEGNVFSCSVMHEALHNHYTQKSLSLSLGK
light: DIQMTQSPSSLSASVGDRVTITCRASQDIINYLNWYQQKPGKAVKLLIYYTSRLHSGVPSRFSGSGSGTDYTLTISSLQPEDFATYYCQQGKTLPYTFGQGTKLEIKRTVAAPSVFIFPPSDEQLKSGTASVVCLLNNFYPREAKVQWKVDNALQSGNSQESVTEQDSKDSTYSLSSTLTLSKADYEKHKVYACEVTHQGLSSPVTKSFNRGEC
notes: as for B4

EC50 (read off the curve) [12]: ~0.03 µg/mL
B7: humanized IgG4/kappa anti-human CD89 monoclonal antibody 10E7 version VH2VL4 (antibody)
heavy: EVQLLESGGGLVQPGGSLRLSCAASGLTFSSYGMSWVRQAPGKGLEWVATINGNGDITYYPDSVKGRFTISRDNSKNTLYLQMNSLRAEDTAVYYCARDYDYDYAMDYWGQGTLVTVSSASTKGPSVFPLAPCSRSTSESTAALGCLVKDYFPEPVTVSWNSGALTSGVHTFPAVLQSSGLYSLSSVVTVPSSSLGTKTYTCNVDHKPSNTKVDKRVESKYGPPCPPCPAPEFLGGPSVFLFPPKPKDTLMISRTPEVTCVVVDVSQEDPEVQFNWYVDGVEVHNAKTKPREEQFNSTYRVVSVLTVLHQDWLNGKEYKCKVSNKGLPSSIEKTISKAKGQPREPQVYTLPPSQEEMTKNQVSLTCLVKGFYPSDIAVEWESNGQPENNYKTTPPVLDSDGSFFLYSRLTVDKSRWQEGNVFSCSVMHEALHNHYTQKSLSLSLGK
light: DIQMTQSPSSLSASVGDRVTITCRASQDIINYLNWYQQKPGKTVKLLIYYTSRLHSGVPSRFSGSGSGTDYTLTISSLQPEDFATYFCQQGKTLPYTFGQGTKLEIKRTVAAPSVFIFPPSDEQLKSGTASVVCLLNNFYPREAKVQWKVDNALQSGNSQESVTEQDSKDSTYSLSSTLTLSKADYEKHKVYACEVTHQGLSSPVTKSFNRGEC
notes: as for B4

EC50 (read off the curve) [12]: ~0.03 µg/mL
B8: humanized IgG4/kappa anti-human CD89 monoclonal antibody 10E7 version VH1VL4 (antibody)
heavy: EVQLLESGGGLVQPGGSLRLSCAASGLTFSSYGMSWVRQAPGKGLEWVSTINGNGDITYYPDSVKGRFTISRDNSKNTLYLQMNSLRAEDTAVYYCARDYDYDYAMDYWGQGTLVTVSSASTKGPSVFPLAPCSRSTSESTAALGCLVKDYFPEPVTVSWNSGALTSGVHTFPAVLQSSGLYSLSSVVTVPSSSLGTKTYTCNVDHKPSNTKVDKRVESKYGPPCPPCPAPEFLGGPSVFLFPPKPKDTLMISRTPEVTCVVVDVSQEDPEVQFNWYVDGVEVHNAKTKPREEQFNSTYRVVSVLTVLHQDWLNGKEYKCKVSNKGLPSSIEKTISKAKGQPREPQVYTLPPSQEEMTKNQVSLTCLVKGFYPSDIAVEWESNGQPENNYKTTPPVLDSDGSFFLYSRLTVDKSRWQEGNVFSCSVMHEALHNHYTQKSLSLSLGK
light: DIQMTQSPSSLSASVGDRVTITCRASQDIINYLNWYQQKPGKTVKLLIYYTSRLHSGVPSRFSGSGSGTDYTLTISSLQPEDFATYFCQQGKTLPYTFGQGTKLEIKRTVAAPSVFIFPPSDEQLKSGTASVVCLLNNFYPREAKVQWKVDNALQSGNSQESVTEQDSKDSTYSLSSTLTLSKADYEKHKVYACEVTHQGLSSPVTKSFNRGEC
notes: as for B4

EC50 [1]: 0.031 µg/mL
IC50 (read off the curve) [3]: ~1 µg/mL
EC50 [2]: 1.32 µg/mL
IC50 (read off the curve) [4]: ~1 µg/mL
IC50 (read off the curve) [5]: ~1 µg/mL
B11: CD89/IgA blocking chimeric mouse/human IgG4/kappa anti-human CD89 antibody 8F3 (antibody)
heavy: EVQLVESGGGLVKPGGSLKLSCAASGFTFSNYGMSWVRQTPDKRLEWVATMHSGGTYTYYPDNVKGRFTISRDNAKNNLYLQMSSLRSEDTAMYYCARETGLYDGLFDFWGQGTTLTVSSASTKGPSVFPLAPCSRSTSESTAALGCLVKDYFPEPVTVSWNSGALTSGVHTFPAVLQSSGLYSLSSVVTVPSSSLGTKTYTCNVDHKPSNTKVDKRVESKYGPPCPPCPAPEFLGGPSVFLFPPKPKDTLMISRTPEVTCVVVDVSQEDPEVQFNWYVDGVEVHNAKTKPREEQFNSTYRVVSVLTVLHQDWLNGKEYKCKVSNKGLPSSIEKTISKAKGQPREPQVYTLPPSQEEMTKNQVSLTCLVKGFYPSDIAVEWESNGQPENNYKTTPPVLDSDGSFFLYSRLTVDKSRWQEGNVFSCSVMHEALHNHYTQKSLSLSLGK
light: DVQITQSPSYLAASPGETITINCRASKTISKYLAWYQEKPGKTNMLLIYSGSTLQSGVPSRFSGSGSGTDFTLTISSLEPEDLAMYYCQQHDEYPWTFGGGTKLEIKRTVAAPSVFIFPPSDEQLKSGTASVVCLLNNFYPREAKVQWKVDNALQSGNSQESVTEQDSKDSTYSLSSTLTLSKADYEKHKVYACEVTHQGLSSPVTKSFNRGEC
notes: stabilized (S239P) human IgG4; also called chimeric 8F3
